From the supplement of paper PMC7877785
± gives the uncertainty stated by the source.

Experiment: self-splicing fitness, log relative to wild type (ln ratio); higher = more splicing; Tetrahymena group I intron in knt gene, E. coli kanamycin selection, DiMSum; sequences stand for … in CUCUCU…GGAGGGAAAAGUUAUCAGGCAUGCACCUGGUAGCUAGUCUUUAAACCAAUAGAUUGCAUCGGUUUAAAAGGCAAGACCGUCAAAUUGCGGGAAAGGGGUCAACAGCCGUUCAGUACCAAGUCUCAGGGGAAACUUUGAGAUGGCCUUGCAAAGGGUAUGGUAAUAAGCUGACGGACAUGGUCCUAACCACGCAGCCAAGUCCUAAGUCAACAGAUCUUCUGUUGAUAUGGAUGCAGUUCACAGACUAAAUGUCGGUCGGGGAAGAUGUAUUCUUCUCAUAAGAUAUAGUCGGACCUCUCCUUAAUGGGAGCUAGCGGAUGAAGUGAUGCAACACUGGAGCCGCUGGGAACUAAUUUGUAUGCGAAAGUAUAUUGAUUAGUUUUGGAGUACUCGUGGUCG
Outline: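 Pooled colonies went to amplicon sequencing on an Illumina HiSeq 2500 after six replicate transformations. The plates were LB agar with 100 μg/mL carbenicillin, 50 μM IPTG and 0.2% rhamnose, with or without 25 μg/mL kanamycin, incubated overnight at 37°C or 30°C. The E. coli BL21(DE3) library had all eight P1ex-region intron nucleotides randomised, the intron placed in the knt kanamycin-resistance gene on pET-22b(+). DiMSum fitness is the error-weighted combination of replicate fold changes, kanamycin against none, normalised to wild type.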

| Sequence | self-splicing fitness (ln) (30 °C) | self-splicing fitness (ln) (37 °C) |
| --- | --- | --- |
| AAUUAGCAAUAUUACGAAUC | -2.34 ± 0.16 | -0.829 ± 0.16 |
| GUCAAGCAAUAUUACGUGUC | -2.72 ± 0.13 | -1.46 ± 0.12 |
| CGAGAGCAAUAUUACGCUCU | -3.65 ± 0.27 | -2.62 ± 0.3 |
| ACAGAGCAAUAUUACGAUGC | -2.74 ± 0.14 | -2.47 ± 0.29 |
| GCCCAGCAAUAUUACGAUUG | -2.63 ± 0.14 | -2.57 ± 0.22 |
| GUUCAGCAAUAUUACGACGG | -4.42 ± 0.24 | -3.24 ± 0.37 |
| AACCAGCAAUAUUACGGGGC | -3.59 ± 0.16 | -2.64 ± 0.16 |
| UCUGAGCAAUAUUACGAAGC |  | -1.48 ± 0.37 |
| GCAAAGCAAUAUUACGCCCC | -0.913 ± 0.19 | -0.135 ± 0.31 |
| GCCGAGCAAUAUUACGCGGG | -4.07 ± 0.2 | -2.3 ± 0.18 |
| CACCAGCAAUAUUACGUCAU | -4.12 ± 0.17 | -2.27 ± 0.14 |
| UUACAGCAAUAUUACGGCUU | -1.13 ± 0.082 | -1.35 ± 0.1 |
| ACGCAGCAAUAUUACGACUA | -1.15 ± 0.072 | -0.183 ± 0.064 |
| CCGAAGCAAUAUUACGUCCU |  | -1.89 ± 0.28 |
| GGAUAGCAAUAUUACGGAUG | -3.16 ± 0.33 | -0.578 ± 0.18 |
| UUAGAGCAAUAUUACGGCAU | -2.51 ± 0.28 | -1.16 ± 0.23 |
| ACCAAGCAAUAUUACGUGGG | -3.46 ± 0.13 | -2.4 ± 0.11 |
| CGUCAGCAAUAUUACGUUAG | -0.494 ± 0.065 | -0.365 ± 0.094 |
| GCCAAGCAAUAUUACGGUUG | -3.23 ± 0.099 | -2.54 ± 0.14 |
| GGUGAGCAAUAUUACGAUAC | -2.03 ± 0.16 | -0.811 ± 0.15 |
| UUCUAGCAAUAUUACGUGAU | -1.89 ± 0.18 | -1.34 ± 0.21 |
| CGCCAGCAAUAUUACGCGGU | -3.04 ± 0.13 | -3.3 ± 0.22 |
| AGCAAGCAAUAUUACGUUGU | -3.33 ± 0.12 | -2.87 ± 0.14 |
| UGGCAGCAAUAUUACGAGAC | -3.74 ± 0.48 | -1.09 ± 0.45 |

| Sequence | self-splicing fitness (ln) (30 °C) | self-splicing fitness (ln) (37 °C) |
| --- | --- | --- |
| AGGCAGCAAUAUUACGCUGU | -3.99 ± 0.16 | -3.28 ± 0.2 |
| UACGAGCAAUAUUACGGUUA | -0.815 ± 0.11 | 0.152 ± 0.11 |
| ACGAAGCAAUAUUACGAUAA | -1.62 ± 0.15 | -1.39 ± 0.14 |
| CGCCAGCAAUAUUACGAGUA | -2.79 ± 0.18 | -1.52 ± 0.18 |
| CGGCAGCAAUAUUACGUUCU | -0.518 ± 0.08 | -0.416 ± 0.11 |
| GGGAAGCAAUAUUACGUAUC | -1.43 ± 0.074 | -1.03 ± 0.11 |
| CGGAAGCAAUAUUACGUAUA | -2.82 ± 0.24 | -2.63 ± 0.3 |
| ACAUAGCAAUAUUACGAAUG | -1.65 ± 0.1 | -1.22 ± 0.13 |
| AUAGAGCAAUAUUACGACUC | -0.707 ± 0.11 | -0.0412 ± 0.15 |
| UUCGAGCAAUAUUACGGUCA | -1.71 ± 0.15 | -1.26 ± 0.13 |
| AGCCAGCAAUAUUACGAGCA | -0.932 ± 0.11 | 0.49 ± 0.14 |
| UGACAGCAAUAUUACGGCGA | -0.625 ± 0.085 | -0.382 ± 0.092 |
| AGGGAGCAAUAUUACGUACG | -3.78 ± 0.4 | -2.2 ± 0.42 |
| AAACAGCAAUAUUACGUGCG | -1.52 ± 0.053 | -0.389 ± 0.065 |
| GCCUAGCAAUAUUACGGAGG | -2.47 ± 0.29 | -2.65 ± 0.28 |
| GAGUAGCAAUAUUACGUGAU | -3.6 ± 0.33 | -2.12 ± 0.34 |
| GAGCAGCAAUAUUACGACAU | -1.29 ± 0.013 | -0.608 ± 0.033 |
| GGGUAGCAAUAUUACGACGU | -0.726 ± 0.12 | -0.0177 ± 0.14 |
| UUGGAGCAAUAUUACGUGUC | -3.26 ± 0.22 | -2.77 ± 0.38 |
| GUGUAGCAAUAUUACGGUUA | -0.588 ± 0.14 | -0.936 ± 0.17 |
| AUGCAGCAAUAUUACGGUCU | -0.211 ± 0.078 | 0.0315 ± 0.091 |
| CUCAAGCAAUAUUACGAGCC |  | -2.67 ± 0.3 |
| UGCAAGCAAUAUUACGCAAU | -3.55 ± 0.4 | -2.06 ± 0.32 |
| AUGGAGCAAUAUUACGCGGG | -2.84 ± 0.45 |  |
